These results are taken from the nanobody polyreactivity screen of Harvey et al. (2022).

The nature of the series: yeast display, Sf9 membrane polyspecificity reagent, FACS + sequencing; frameworks hold sequencing errors. An outline of the steps: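 Synthetic nanobody libraries on Saccharomyces cerevisiae BJ5465 were galactose-induced for 36–48 hours, stained 1 hour at 4 °C with 10% biotinylated, detergent-solubilized Sf9 membrane reagent and enriched on streptavidin microbeads. FACS then separated cells into low and high (top ~1%) gates by anti-HA (expression) and streptavidin (reagent binding) fluorescence. Genes were colony-PCR amplified, MiSeq 2 × 250 sequenced and CDR-length filtered. A clone's polyreactivity label is that of its gate of origin.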
“QVQLVESGGGLLQAGRSLRLSCAASGSIIWLYAMGWYRQAPGKERELVAAISWTGTSTNYADSVKGRFTISRDYAKNTVYLQMNSLKPEDTAVYYCAKRWYNQKLFGYEDEYDYWGQGTQVTVSS”: the “polyreactivity (PSR sort gate)” value is “low polyreactivity”.

On to “QGLLVQSGGGLVQAGGSLRLSCAASGFTFRFYAMLWYRQAPGNERELVAAISSTGSTNYADSVKARCTISRDNAKNTVYLQKNSLKPEDTAVYYCNTDYYNRYYDWLIWYYYWGQGTQVTVSS”, for which the “polyreactivity (PSR sort gate)” value is “high polyreactivity”.

“QVQLVESGGGLVQAGGSLRLSCAASGRTFRYYAMGWYRQAPGKERELVAAINRGGSTYYADSVKGRFTISRDNAKNTVYLQMNSLKPEDTAVYYCNVDKYRIVGFHSPYDYWGQGTQVTVSS”: the “polyreactivity (PSR sort gate)” value is listed as “high polyreactivity”.

Consider “QVQLVESGGGLVQAGGSLRLSCAASGRTQAFHAMGWYRQAPGKERELVAVIRNGTSTNYADSVKGRFTISRDNAKNTVYLQMNSLKPEDTAVYYCNVPYYLPSYLSGYDYWGQGTQVTVSS”, for which the “polyreactivity (PSR sort gate)” value is reported as “low polyreactivity”.

In the case of “QVQLVESGGGLVQAGGSLRLSCAASGSTLQNNAMGRYRQAPGKERELVAAISVSDGITYYADSVKGRFTISRDNAKNTVYLQMNSLKPEDTAVYSFAADYSSPWQAVQGDDYWGQGTQVTVSS”, the “polyreactivity (PSR sort gate)” value is “low polyreactivity”.

“QVQLVESGGGLVQAGGSLRLSCAASGRTFGKYAMGWYRQAPRKEREFFAAISRSGGNTYYADTVKGRFTISRDNAKNTVYLQMTSLIPEDTAVYYCARGLSTYVLSHGLEYRTYFYWGQGTQVTVSS”: the “polyreactivity (PSR sort gate)” value was “high polyreactivity”.

Turning to “QVQLVESGGGLVQAGGSLRLSCAASGFTFTRNAMGWYRQAPGKERELVAAISKSGGRTYYADSVKGRFTISRDNAKNTVYLKMNSLKPEDSAVYYCAVVPRPFGLGSDYDYWGQGTQVTVSS”, the “polyreactivity (PSR sort gate)” value is “high polyreactivity”.

As to “QVQLVESGGGLVQAGGSLRLSCAASGFIFSVYAMGWYRQAPGKERELVAAITGNGVSTYYADSVKGRFTISRDNAKNTVYLQMISLKPEDTAVYSCATYGRRWYSSRRLDYWGQGTQVTVSS”, the “polyreactivity (PSR sort gate)” value was “low polyreactivity”.

Turning to “QDQLVESGGGLVQAGGSLRLSCAASGSTFVDNAIGWYRQAPGKERELVAAISRGGSTHYADSVKGRFTISRDNAKNTVYLQMNSLKPEDTAVYYCAAVIDSREEYWGQGTQVTVSS”, the “polyreactivity (PSR sort gate)” value is “high polyreactivity”.

Regarding “QVQLVESGGGLVQAGGSLRLSCAASGFIFRYNAMGWYRQAPGKERELVASISYSGARTYYADSVKGRFTISRDNEKNTVYLQMNSLKPEDTAVYYCATGPLSYVRYYYWGQGTQVTVSS”, the “polyreactivity (PSR sort gate)” value is “low polyreactivity”.

For “QVQLVESGGGLVQAGGSLRLSCSASGSIFPYYSMGWYRQAPGQERQLVAAISYSGGRTRYADSVKGRFTISRDNAKNTVYLQMNSLKPEDTAVYYCAVVDRHQPYGRQLDYWGQGTQVTVSS”, the “polyreactivity (PSR sort gate)” value is listed as “low polyreactivity”.

In the case of “QVQLVESGGGLVQAGGSLRLSCAASGSIFLINAMGWYRPAPGKERELVAAITWSGGRTYYADSVKGRFTISRDNAKNTVYLQMNSLKPEDTAVYYCATRKRRSRPPTYDYWGQGTQVTVSS”, the “polyreactivity (PSR sort gate)” value is “high polyreactivity”.

As for “QVQLVESGGGLVQAGGSLRLSCAASGRIFRWNAMGWYRQAPGKERELVASITGGDITNYADSVKGRFTISRDNAKNTVYLQMNSLKPEDTAVYYCAARGYGRGRPVASYGYDYWGQGTQVTVSS”, the “polyreactivity (PSR sort gate)” value is listed as “low polyreactivity”.

As for “QVQLVESVGGLVQAGGSLRLSCAASGSTFAYNDMGWYRQAPGKERELVPDIRSGGNTNYADSVKGRFTISRDNAKNTVYLQMNSLKPEDTAVYYCATDGYRIDVYHPDYRYDYWGQGTQVTVSS”, the “polyreactivity (PSR sort gate)” value was “low polyreactivity”.

For the sequence “QVQLVESGGGLVQAGGSLRLSCAASGFTFARYTMGWYRQAPGKERELVAAISSRGSSTYYADSVKGRFTISRDNAKNTVFLQMNSLKPEDTAVYYCAASPYDTQTLDYDYWGQGTQVTVSS”, the “polyreactivity (PSR sort gate)” value is reported as “high polyreactivity”.

For “QVQLVESGGGLVQAGGSLRLSCAASGRTFRYYAMGWYRQAPGKERELVAAITSGGSTNYADSVKGRFTISRDNAKNTVYLQMNSLKPEDTAVYYCAAYWRSRNRFFWGQGTQVTVSS”, the “polyreactivity (PSR sort gate)” value is “high polyreactivity”.

“QVQLVESGGGLVQAGGSLRLSCAASGRTFWIYAMGWYRQAPGKEREFVAAISSSGGGTYYADSVKGRFTISRDNAKNTVYLQMNSLKPEDTAVYYCAKDLYFSKGYYWGQGTQVTVSS”: the “polyreactivity (PSR sort gate)” value is “low polyreactivity”.

As for “QDHLVESVGGLVQAGRSLRLTCAASGGTFYYKTMGWYRQAPGKESQLVAAITSGTSTNYADSVKGRFTISRDNAKNTVYLQMNSLKPEDTAVYYCAADPDADDPRRGYDYWGQGTQVTVSS”, the “polyreactivity (PSR sort gate)” value was “low polyreactivity”.

“QDQLGDSGGGLLQAGGSLRLSCAASGQIYFDNMGWYRQAPGKEREMVAAISSSGASTSYADSVKGRFTISRDNAKNTVYLQIYSLNPEDTAVYYCAADSYPAYLGFVGFDYWGQGTQVTVSS”: the “polyreactivity (PSR sort gate)” value was “low polyreactivity”.

“QVQLVESVGGLVQAGGSLRLSCAASGLTFNHYAMGWYRQAPGKEMELVAAISKSGSSTYYADSVKGRFTISRDNAKNTVYLQMNSLKPEDTAVYYCAARSWDPALYDYWGQGTQVTVSS”: the “polyreactivity (PSR sort gate)” value was “high polyreactivity”.

Take “QVQLVESGGGLVQAGGSLRLSCAASGFIFWHYTMGWYRQAPGKERELVAASTWTGGSTYYADSVKGRFTISRDNEKNTVYLQMNSLKPEETAVYYCNADYPGEGITYGYWGQGTQVTLSS”: the “polyreactivity (PSR sort gate)” value is given as “low polyreactivity”.

Regarding “QVQLVESGGGLVQAGGSLRLICAASGLIFGKYAMGWYRQAPGKEREFVAAITRSGGSTYYADSVKGRFTISRDNAKNTVYLQMNSLKPEDTAVYYCAAYSLKYYNGYDYWGQGTQVTVSS”, the “polyreactivity (PSR sort gate)” value was “high polyreactivity”.

Consider “QVQLVESGGGLVQAGGSLRFSCAASGRIFTAYTMGWYRQAPGKERELVAAITRAGRTYYADSVKGRFTISRDNAKNTVYLQMNSLKPEDTAVYYCNTAPNYKYGYWGQGTQVTVSS”, for which the “polyreactivity (PSR sort gate)” value was “high polyreactivity”.

Consider “QVQLVESGGGLVQAGGRLRLSCAASGYTFAGNAMGGYRPAPGKERELVAVITYSGGSTYYADSVKGRFTISRDNAKNTVYLQMNSLKPEDTAVYYCAADWQYSPRMDYWGQGTQVTVSS”, for which the “polyreactivity (PSR sort gate)” value was “low polyreactivity”.

With “QVQLVESGGGLVQAGGSLRLSCAASGRTFFLYTMGWYRQAPGKEREFVAAINYSGGRTYYADSVKGRVTISRDHAKNTVYLQMNSLKPEDTAVDYCNAVYSFLYPDHMGYWGQGTQVTVSS”, the “polyreactivity (PSR sort gate)” value is “high polyreactivity”.

On to “QVQLVESGGGLVQAGGSLRLSCAASGSIIKPYAMGWYRQAPGKERELVAAIRSSGGRTNYADSVKGRFTISRDNAKNTVYLQMNSLKPEDTAVYYCAKRYYGRKYYYWGQGTHVTVSS”, for which the “polyreactivity (PSR sort gate)” value is listed as “high polyreactivity”.

Consider “QVQLVESGGGLVQAGGSLRLSCAASGLILYYYDMGWYRQAPGKERELVAAISWNGDDTYYADSVKGRFTISRDNAKNTVYLQMNSLKPEDTAVYYCAAEGPPQTDDYWGQATQVTVSS”, for which the “polyreactivity (PSR sort gate)” value is recorded as “high polyreactivity”.

For the sequence “QVQLVESGGGLVQAGGSLRLSCAASGRTFSVYTMGWYRQAPGKERELVASINWSGGRTYYADSVKGRFTISRDNAKYSVYFQMISLKPEDTAVYYCAATGWRTLFDYWGQGTQVTVSS”, the “polyreactivity (PSR sort gate)” value is “high polyreactivity”.

In the case of “QVQLVESGGGLVQAGRSLRLSCAASGSTLTRNAMGWYRQAPGKERELVAAITQRGGSTYYADSVKGRFTISRDNAKNTVYLQMNSLKPEDTAVYYCAAAYRGYARHDYWGQGTQVNVSS”, the “polyreactivity (PSR sort gate)” value was “high polyreactivity”.

On to “QVQLVESGGGLVQAGGSLRLSCAASGSIFYWYAIGWYRQAPGKETELVAAISSGGSTNYADSVKGRFTISRDNAKNTVYLQMNSLKPEDTAVYYCNADIRSFYWEYYTGLDSWGQGTQVTVSS”, for which the “polyreactivity (PSR sort gate)” value is recorded as “low polyreactivity”.

For “QVQLVESGGGLVQAGGSLRLSCAASGSTYAAKTMGWYRQAPGKERELVAAITVRGGSTYYADSVKGRFTISRDNAKNTVYLQMNSLKPEDTAVYYCATRHPARRDYWGQGTQVTVSS”, the “polyreactivity (PSR sort gate)” value is reported as “low polyreactivity”.

For the sequence “QVQLVESGGGLVQAGGSLRLSCAASGAIFAYNAMGWYRQAPGKEREFVAAISQSGGRTYYADSVKGRFTISRDYEKNTVYLQMNTLKPEDTAVYYCATDGIRLTSHRDYDYWGQGTQVTVSS”, the “polyreactivity (PSR sort gate)” value was “low polyreactivity”.

For the sequence “QVQLVESGGGLVQAGCSLRLSCAASGITVYDYDMGWYRQAPGKERELVAAITWNGGSTYYADSVKGRFTISRDNAKNTVYLQMNSLKPEDTAVYYCAAESYYIYDYWGQGTQVTVSS”, the “polyreactivity (PSR sort gate)” value was “high polyreactivity”.

Consider “QVQLVESGGGLVQAGGSLRLSCAASGSTFYNYVMGWYRQAPGKERELVAVINRSGTRTYYADSVKGRLTISRDNAKITVYLQMNSLKPEDTAVYYCNAELSYPGRYDSWGQGTQVTVSS”, for which the “polyreactivity (PSR sort gate)” value is recorded as “high polyreactivity”.

With “QVQHVESGGGLVQAGGSLRLSCAASIRIFRYYAMGRSRQGPGKEREVVASSRSASSTYYADSVKGRFTISRDNAKNPVYLQMNSLKAEDTAVYYCNAVSPLSIWSSRDGWYGYWGQGTQVTVSS”, the “polyreactivity (PSR sort gate)” value is listed as “high polyreactivity”.

Regarding “QVQLVDSAGGLVQAGGILRLSCAASGFTFDAKSRGWYRQAPGTERELVDAISLSDGSTYYADSVKGRFTISRDNAKNTVYLQMNSLKPEDTAVYYCNAERFGSGLAWLLFDYWGQGTQVTVSS”, the “polyreactivity (PSR sort gate)” value is listed as “low polyreactivity”.

On to “QVQLVESGGGLVQAGGSIRLICAASGRNYAVYAMGWYRQAPGKERELVAAITYGGGRTYYADSVKGRFTISRDNEKNTVYLKLNSMNPEDTAVYFCAADYFGTDYDYWGQGTHVTVSS”, for which the “polyreactivity (PSR sort gate)” value is “low polyreactivity”.

Consider “QLQLVESGRGLVQAGGTLRLSCAASGRIFGKNAIGSYRQAPGKEMELVAAITGSGGRTYNADSVKGRFTISRDNAKNTVYLQMNSMKPEDTAVYYCAVRVTSYYRTMDYWGQGTQGTVSS”, for which the “polyreactivity (PSR sort gate)” value was “low polyreactivity”.

On to “QVQLVESGGGLVQAGGSLRLSCAASGRTFGPYAMGWYRQAPGKERELVAAIRYIDDSTFYADSVKGRFTISRDNAKNTVYLQMNSLKPEDTAVYYCAAQRRVVGRHGLSLIRYDYWGQGTQVTVSS”, for which the “polyreactivity (PSR sort gate)” value is listed as “low polyreactivity”.

Take “QVQLVESGGGLVQAGGSLRLSCAASGGTFGAYAMGWYRPAPGKERELVAAISGSGARTYYADSVKGRFTISRDNAKNTVYLQMNSLKPEDTAVYYCAARSTGTRVGEYDYWGQGTQVTVSS”: the “polyreactivity (PSR sort gate)” value is on record as “high polyreactivity”.

On to “QVQLVESGGGLVQAGGSLSLSCAASGSTFGDYAMGWYRQAPGKERELVAAITSSGGRTFYADSVKGRFTISRDNAKNTVYLQMNSLKPEDHAVYYCAAEFTDPPSEYEYWGQGTQVTVSS”, for which the “polyreactivity (PSR sort gate)” value is “low polyreactivity”.
